From PMC8915965
Read-outs that look alike come from different tables or passages of the source.

Columns and labels:
[1] = expression in HeLaΔCD164 (SI Fig. S4); conditions: glycan lost; control: WT CD164

B1: CD164: N104Q hCD164PM (protein)
parent chain: MSRLSRSLLWAATCLGVLCVLSADKNTTQHPNVTTLAPISNVTSAPVTSLPLVTTPAPETCEGRNSCVSCFNVSVVNTTCFWIECKDESYCSHNSTVSDCQVGNTTDFCSVSTATPVPTANSTAKPTVQPSPSTTSKTVTTSGTTNNTVTPTSQPVRKSTFDAASFIGGIVLVLGVQAVIFFLYKFCKSKERNYHTL
Glycan lost
  other: cell-cell membrane fusion: abolishes

B2: CD164: N72Q (protein)
parent chain: MSRLSRSLLWAATCLGVLCVLSADKNTTQHPNVTTLAPISNVTSAPVTSLPLVTTPAPETCEGRNSCVSCFNVSVVNTTCFWIECKDESYCSHNSTVSDCQVGNTTDFCSVSTATPVPTANSTAKPTVQPSPSTTSKTVTTSGTTNNTVTPTSQPVRKSTFDAASFIGGIVLVLGVQAVIFFLYKFCKSKERNYHTL
[1]
  expression_or_secretion: no change
Glycan lost
  other: support of virus infection: no change

B3: CD164: N77Q (protein)
parent chain: MSRLSRSLLWAATCLGVLCVLSADKNTTQHPNVTTLAPISNVTSAPVTSLPLVTTPAPETCEGRNSCVSCFNVSVVNTTCFWIECKDESYCSHNSTVSDCQVGNTTDFCSVSTATPVPTANSTAKPTVQPSPSTTSKTVTTSGTTNNTVTPTSQPVRKSTFDAASFIGGIVLVLGVQAVIFFLYKFCKSKERNYHTL
[1]
  expression_or_secretion: no change
Glycan lost
  other: support of virus infection: no change

B4: CD164: N104Q (protein)
parent chain: MSRLSRSLLWAATCLGVLCVLSADKNTTQHPNVTTLAPISNVTSAPVTSLPLVTTPAPETCEGRNSCVSCFNVSVVNTTCFWIECKDESYCSHNSTVSDCQVGNTTDFCSVSTATPVPTANSTAKPTVQPSPSTTSKTVTTSGTTNNTVTPTSQPVRKSTFDAASFIGGIVLVLGVQAVIFFLYKFCKSKERNYHTL
[1]
  expression_or_secretion: no change
Glycan lost
  other: support of virus infection: decreases

B5: CD164: N94Q (protein)
parent chain: MSRLSRSLLWAATCLGVLCVLSADKNTTQHPNVTTLAPISNVTSAPVTSLPLVTTPAPETCEGRNSCVSCFNVSVVNTTCFWIECKDESYCSHNSTVSDCQVGNTTDFCSVSTATPVPTANSTAKPTVQPSPSTTSKTVTTSGTTNNTVTPTSQPVRKSTFDAASFIGGIVLVLGVQAVIFFLYKFCKSKERNYHTL
[1]
  expression_or_secretion: no change
Glycan lost
  other: support of virus infection: no change

B6: rat CD164 (rCD164): T102N rCD164 (protein)
parent chain: MSGASRGLFWAATCLAALCLSAAQSNSSASPNVTDPPTTTSKVVPTTLTTTKPPETCESFNSCVSCVNATLTNNITCVWLDCHEANKTYCSSELVSNCTQKTSTDSCSVIPTTPVPTNSTAKPTTRPSSPTPTPSVVTSAGATNTTVTPTSQPERKSTFDAASFIGGIVLVLGVQAVIFFLYKFCKSKERNYHTL
Glycan gained
  other: support of virus infection: increases
